# In the FLAb antibody collection (doi:10.7554/elife.23156):
# B1: scFv; the commonest letter at each place (parent)
# chain 1: EVKLDETGGGLVQPGRPMKLSCVASGFTFSDYWMNWVRQSPEKGLEWVAQIRNKPYNYETYYSDSVKGRFTISRDDSKSSVYLQMNNLRVEDMGIYYCTGSYYGMDYWGQGTSVTVS
# chain 2: DVVMTQTPLSLPVSLGDQASISCRSSQSLVHSNGNTYLRWYLQKPGQSPKVLIYKVSNRFSGVPDRFSGSGSGTDFTLKISRVEAEDLGVYFCSQSTHVPWTFGGGTKLEIK
# Assays:
# [1] = variants of: B1; experiment: Kd (Tite-Seq); details: with fluorescein; format: scFv 4-4-20, heavy + light
# [2] = variants of: B1; experiment: yeast surface expression (ratio to wild type); higher = more expressed; details: format: scFv 4-4-20, heavy + light
Variant,Kd [1],yeast surface expression [2]
chain 1 EVKLDETGGGLVQPGRPMKLSCVASGFTFSDYWMSWERQSPEKGLEWVAQIRNKPYNYETYYSDSVKGRFTISRDDSKSSVYLQMNNLRVEDMGIYYCTGSYYGMDYWGQGTSVTVS chain 2 DVVMTQTPLSLPVSLGDQASISCRSSQSLVHSNGNTYLRWYLQKPGQSPKVLIYKVSNRFSGVPDRFSGSGSGTDFTLKISRVEAEDLGVYFCSQSTHVPWTFGGGTKLEIK [chain 1 N35S V37E],≥ 10 µM,0.574
chain 1 EVKLDETGGGLVQPGRPMKLSCVASGFTFSDYWMNWVRQSPEKGLEWVAQIRNKPYNYETYYSDSVKGRFTISRDDSKSSVYLQMNNLRVEDMGIYYCTGSYYGRDYAGQGTSVTVS chain 2 DVVMTQTPLSLPVSLGDQASISCRSSQSLVHSNGNTYLRWYLQKPGQSPKVLIYKVSNRFSGVPDRFSGSGSGTDFTLKISRVEAEDLGVYFCSQSTHVPWTFGGGTKLEIK [chain 1 M105R W108A],7.33 µM,0.498
chain 1 EVKLDETGGGLVQPGRPMKLSCVASGFTFLDYWMTWVRQSPEKGLEWVAQIRNKPYNYETYYSDSVKGRFTISRDDSKSSVYLQMNNLRVEDMGIYYCTGSYYGMDYWGQGTSVTVS chain 2 DVVMTQTPLSLPVSLGDQASISCRSSQSLVHSNGNTYLRWYLQKPGQSPKVLIYKVSNRFSGVPDRFSGSGSGTDFTLKISRVEAEDLGVYFCSQSTHVPWTFGGGTKLEIK [chain 1 S30L N35T],≥ 10 µM,0.699
chain 1 EVKLDETGGGLVQPGRPMKLSCVASGFTFMDYWMNWMRQSPEKGLEWVAQIRNKPYNYETYYSDSVKGRFTISRDDSKSSVYLQMNNLRVEDMGIYYCTGSYYGMDYWGQGTSVTVS chain 2 DVVMTQTPLSLPVSLGDQASISCRSSQSLVHSNGNTYLRWYLQKPGQSPKVLIYKVSNRFSGVPDRFSGSGSGTDFTLKISRVEAEDLGVYFCSQSTHVPWTFGGGTKLEIK [chain 1 S30M V37M],0.000504 µM,0.887
chain 1 EVKLDETGGGLVQPGRPMKLSCVASGFTFSDYWMNWVRQSPEKGLEWVAQIRNKPYNYETYYSDSVKGRFTISRDDSKSSVYLQMNNLRVEDMGIYYCTGSYYGWDCWGQGTSVTVS chain 2 DVVMTQTPLSLPVSLGDQASISCRSSQSLVHSNGNTYLRWYLQKPGQSPKVLIYKVSNRFSGVPDRFSGSGSGTDFTLKISRVEAEDLGVYFCSQSTHVPWTFGGGTKLEIK [chain 1 M105W Y107C],≥ 10 µM,0.264
chain 1 EVKLDETGGGLVQPGRPMKLSCVASGFTFSDYWMNWVRQSPEKGLEWVAQIRNKPYNYETYYSDSVKGRFTISRDDSKSSVYLQMNNLRVEDMGIYYCTGSYYKMDYWGQGTSVTVS chain 2 DVVMTQTPLSLPVSLGDQASISCRSSQSLVHSNGNTYLRWYLQKPGQSPKVLIYKVSNRFSGVPDRFSGSGSGTDFTLKISRVEAEDLGVYFCSQSTHVPWTFGGGTKLEIK [chain 1 G104K],≥ 10 µM,0.557

# More lines, main results first:
Kd [1],Variant,yeast surface expression [2]
≥ 10 µM,chain 1 EVKLDETGGGLVQPGRPMKLSCVASGFSFSDYWNNWVRQSPEKGLEWVAQIRNKPYNYETYYSDSVKGRFTISRDDSKSSVYLQMNNLRVEDMGIYYCTGSYYGMDYWGQGTSVTVS chain 2 DVVMTQTPLSLPVSLGDQASISCRSSQSLVHSNGNTYLRWYLQKPGQSPKVLIYKVSNRFSGVPDRFSGSGSGTDFTLKISRVEAEDLGVYFCSQSTHVPWTFGGGTKLEIK [chain 1 T28S M34N],0.645
≥ 10 µM,chain 1 EVKLDETGGGLVQPGRPMKLSCVASGFTFSDYWMNWVRQSPEKGLEWVAQIRNKPYNYETYYSDSVKGRFTISRDDSKSSVYLQMNNLRVEDMGIYYCTGLYYGMDYWGQGTSVTVS chain 2 DVVMTQTPLSLPVSLGDQASISCRSSQSLVHSNGNTYLRWYLQKPGQSPKVLIYKVSNRFSGVPDRFSGSGSGTDFTLKISRVEAEDLGVYFCSQSTHVPWTFGGGTKLEIK [chain 1 S101L],0.497
0.143 µM,chain 1 EVKLDETGGGLVQPGRPMKLSCVASGFKFSDYWMNWLRQSPEKGLEWVAQIRNKPYNYETYYSDSVKGRFTISRDDSKSSVYLQMNNLRVEDMGIYYCTGSYYGMDYWGQGTSVTVS chain 2 DVVMTQTPLSLPVSLGDQASISCRSSQSLVHSNGNTYLRWYLQKPGQSPKVLIYKVSNRFSGVPDRFSGSGSGTDFTLKISRVEAEDLGVYFCSQSTHVPWTFGGGTKLEIK [chain 1 T28K V37L],1.01
≥ 10 µM,chain 1 EVKLDETGGGLVQPGRPMKLSCVASGFTFYDYGMNWVRQSPEKGLEWVAQIRNKPYNYETYYSDSVKGRFTISRDDSKSSVYLQMNNLRVEDMGIYYCTGSYYGMDYWGQGTSVTVS chain 2 DVVMTQTPLSLPVSLGDQASISCRSSQSLVHSNGNTYLRWYLQKPGQSPKVLIYKVSNRFSGVPDRFSGSGSGTDFTLKISRVEAEDLGVYFCSQSTHVPWTFGGGTKLEIK [chain 1 S30Y W33G],0.602
≥ 10 µM,chain 1 EVKLDETGGGLVQPGRPMKLSCVASGFTFSDYWMNWPRQSPEKGLEWVAQIRNKPYNYETYYSDSVKGRFTISRDDSKSSVYLQMNNLRVEDMGIYYCTGSYYGMDYWGQGTSVTVS chain 2 DVVMTQTPLSLPVSLGDQASISCRSSQSLVHSNGNTYLRWYLQKPGQSPKVLIYKVSNRFSGVPDRFSGSGSGTDFTLKISRVEAEDLGVYFCSQSTHVPWTFGGGTKLEIK [chain 1 V37P],0.676
≥ 10 µM,chain 1 EVKLDETGGGLVQPGRPMKLSCVASGFNFSDYYMNWVRQSPEKGLEWVAQIRNKPYNYETYYSDSVKGRFTISRDDSKSSVYLQMNNLRVEDMGIYYCTGSYYGMDYWGQGTSVTVS chain 2 DVVMTQTPLSLPVSLGDQASISCRSSQSLVHSNGNTYLRWYLQKPGQSPKVLIYKVSNRFSGVPDRFSGSGSGTDFTLKISRVEAEDLGVYFCSQSTHVPWTFGGGTKLEIK [chain 1 T28N W33Y],1
